These results are taken from patent US20100278929A1 (MEDLMMUNE, published 2010).

Assay [1] addresses T1, RSV (Long strain) F protein on infectious virus (respiratory syncytial virus (Long …, UniProt P12568 26-574)). Put plainly: cell-based or functional assay.
For assay [2], the target named is T1, RSV (Long strain) F protein on …. Put plainly: cell-based or functional assay. This is another data set of the same source.
For assay [3] the target is unchanged. The experiment in a line: cell-based or functional assay. This is another data set of the same source.
The target of assay [4] is T2, recombinantly produced, C-terminally truncated RSV (A2 strain) F protein (respiratory syncytial virus (A2 strain), UniProt P03420 26-524).
T2 construct: extracellular domain; also called RSV F protein; truncated F protein
Put plainly: SPR, BIAcore 3000; F protein coupled at low density to CM5 chip; KD = koff/kon. For orientation: SPR reads the build-up and loss of mass on a sensor chip optically.
Method: (§1) Purified F protein was covalently coupled to an N-hydroxysuccinimide-N-ethyl-N′-[3-diethylaminopropyl]-carbodiimide (EDC/NHS) activated CM5 sensor chip at a low protein density according to the manufacturer's protocol; unreacted active ester groups were blocked with 1 M ethanolamine. For reference purposes, a blank surface, containing no antigen, was prepared under identical immobilization conditions.
(§2) For kinetic measurements, a serial 2-fold dilution series of each mAb from 100 nm-0.2 nm, made in instrument buffer (HBS/Tween-20, BIAcore, Inc.), was injected over the F-protein and reference cell surfaces, which are connected in series. In each analysis, following the dissociation phase, the remaining bound antibody was removed from the sensor chip by passing a brief pulse of 100 mM HCl over the surface. Once an entire data set was collected, the resulting binding curves were globally fitted to a 1:1 Langmuir binding model using BIAevaluation software (BIAcore, Inc., Piscataway, N.J.). This algorithm calculates both the association rate (kₒₙ) and the dissociation rate (koff), from which the apparent equilibrium binding constant, KD, for each antibody was deduced as the ratio of the two rate constants, koff/kₒₙ.

Assay [5] has as its target T2, recombinantly produced, C-terminally …. The experiment in a line: SPR, BIAcore 3000; F protein coupled at low density to CM5 chip, mAb injected at 100-0.2 nM; 1:1 Langmuir fit.
Method: as §1, §2
The target in assay [6] is T1, RSV (Long strain) F protein on …. The experiment in a line: cell-based or functional assay. The source holds these as a separate data set.

T2 sequence (P03420 26-109, chain 1 of 2): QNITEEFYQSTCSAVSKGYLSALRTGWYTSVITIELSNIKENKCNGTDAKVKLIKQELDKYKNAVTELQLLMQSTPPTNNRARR
T2 sequence (P03420 137-524, chain 2 of 2): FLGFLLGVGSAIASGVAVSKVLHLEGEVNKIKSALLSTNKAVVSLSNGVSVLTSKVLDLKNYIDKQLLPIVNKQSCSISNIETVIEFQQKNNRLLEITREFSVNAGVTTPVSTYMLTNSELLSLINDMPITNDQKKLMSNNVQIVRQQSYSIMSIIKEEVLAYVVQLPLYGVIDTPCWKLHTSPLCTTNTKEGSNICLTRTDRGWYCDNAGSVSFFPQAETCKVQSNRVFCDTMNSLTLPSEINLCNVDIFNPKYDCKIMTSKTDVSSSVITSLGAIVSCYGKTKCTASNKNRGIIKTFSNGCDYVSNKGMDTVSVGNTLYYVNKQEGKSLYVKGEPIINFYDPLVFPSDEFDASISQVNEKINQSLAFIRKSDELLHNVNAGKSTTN

B1: palivizumab (antibody, V domains shown)
VH: QVTLRESGPALVKPTQTLTLTCTFSGFSLSTSGMSVGWIRQPPGKALEWLADIWWDDKKDYNPSLKSRLTISKDTSKNQVVLKVTNMDPADTATYYCARSMITNWYFDVWGAGTTVTVSS
VL: DIQMTQSPSTLSASVGDRVTITCKCQLSVGYMHWYQQKPGKAPKLLIYDTSKLASGVPSRFSGSGSGTEFTLTISSLQPDDFATYYCFQGSGYPFTFGGGTKLEIK
notes: also called SYNAGIS
As a reminder, the Kd is a measure of binding affinity in units of concentration. What is called koff is the rate constant with which the complex falls apart. The term kon denotes the rate constant with which the complex forms. Consider B1, for which, in assay [1], the “Mean IC50 (Control), RSV microneutralization” value was 0.535 µg/mL and the “Mean IC50 (Curve), RSV microneutralization” value came to 0.453 µg/mL. Also, the “average IC50, RSV microneutralization assay” value in assay [2] was determined as 0.315 µg/mL. The “IC50 (read off the curve)” value in assay [3] was around 0.4 µg/mL. In addition, the dissociation constant Kd in assay [4] was found to be 3.46 nM. In assay [5], the off-rate constant (koff) came to 0.000395 s⁻¹ and the kon is 114000 M⁻¹ s⁻¹.

B2: A4B4L1FR-S28R (motavizumab) (antibody, V domains shown)
VH: QVTLRESGPALVKPTQTLTLTCTFSGFSLSTAGMSVGWIRQPPGKALEWLADIWWDDKKHYNPSLKDRLTISKDTSKNQVVLKVTNMDPADTATYYCARDMIFNFYFDVWGQGTTVTVSS
VL: DIQMTQSPSTLSASVGDRVTITCSASSRVGYMHWYQQKPGKAPKLLIYDTSKLASGVPSRFSGSGSGTEFTLTISSLQPDDFATYYCFQGSGYPFTFGGGTKVEIK
Take B2: in assay [6], the “IC50 (read off the curve); sample: Cyno-69 BAL” value is around 0.01 µg/mL and the “IC50 (read off the curve); sample: purified MEDI-524 control” value was around 0.007 µg/mL. Moreover, in assay [2], the “average IC50, RSV microneutralization assay” value amounted to 0.018 µg/mL and the “fold potency against palivizumab, RSV microneutralization assay” value is around 18 fold. The “IC50 (read off the curve)” value in assay [3] was around 0.02 µg/mL.
